Values of other authors in publication PMC6426597.
pKd: −log10 of the molar value.

Molecular target: CD40 (Homo sapiens) (UniProt P25942)
Chain of UniProt P25942 (P25942 21-193): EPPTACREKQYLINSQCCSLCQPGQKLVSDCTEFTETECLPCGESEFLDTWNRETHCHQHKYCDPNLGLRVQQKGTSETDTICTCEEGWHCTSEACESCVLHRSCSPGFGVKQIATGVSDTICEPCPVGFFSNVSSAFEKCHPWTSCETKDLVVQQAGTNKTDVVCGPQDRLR

TSST-1 (from UniProt P06886)
pKd: 5.57
